Results reported in PMC4222529 (Biochemistry, 2014).
No end group written: not given here. *: point of attachment. 5FAM = O=C1OC2(c3ccc(O)cc3Oc3cc(O)ccc32)c2ccc(C(=O)*)cc21

B1: NEMOw (domain or fragment)
chain: GSWEQGAPETLQRCLEENQELRDAIRQSNQILRERCEELLHFQASQREEKEFLMCKFQEARKLVERLGLEKL
B2: IKKβ_(KK/RR) (peptide, UniProt O14920 701-745, looked up)
chain: PARRSEELVAEAHNLCTLLENAIQDTVREQDQSFTALDWSWLQTE
B3: NEMOwDcc (designed binder)
chain: GSWSVKELEDKNEELLSEIAHLKNEVARLKKLLQRCLEENQELRDAIRQSNQILRERCEELLHFQASQREEKEFLMCKFQEARKLVERLGLEKLELEDKNEELLSEIAHLKNEVARLKKLVGER
B4: 5′FAM-IKKβ_(KK/RR) (peptide, UniProt O14920 701-745, looked up)
chain: 5FAM-PARRSEELVAEAHNLCTLLENAIQDTVREQDQSFTALDWSWLQTE
modifications: not fully specified

Tests used:
[1] = target: NEMOwNcc (UniProt Q9Y6K9); experiment: non-reducing SDS-PAGE
[2] = target: 5′FAM-IKKβ_(KK/RR) (UniProt O14920); experiment: fluorescence polarisation
[3] = target: NEMOwCcc (UniProt Q9Y6K9); experiment: non-reducing SDS-PAGE
[4] = target: the molecule itself; experiment: non-reducing SDS-PAGE
[5] = target: T1, GST-NEMO(1–196) (UniProt Q9Y6K9 1-196); experiment: fluorescence polarisation
[6] = target: B4; experiment: fluorescence polarisation
[7] = target: B1; experiment: fluorescence polarisation
[8] = target: T1, GST-NEMO(1–196); experiment: fluorescence polarisation; remark: listed apart in the source

“NEMOwNcc (from UniProt Q9Y6K9 51-112) (designed binder)” showed a stoichiometry N [1] of 2 and a Kd [2] of 980 nM.

In the case of “NEMOwCcc (from UniProt Q9Y6K9 44-112) (designed binder)”, the stoichiometry N [3] is reported as 2 and the Kd [2] is reported as 150 nM.

For B1, the “stoichiometry N” value [4] was 2.

Work on B2 yielded an IC50 [5] of 167 ± 3 nM.

B3 gave a Kd [6] of 114 ± 3 nM.

B4 was tested, and the Kd [7] was roughly 10000 nM and the Kd [8] was 168 ± 4 nM.
